According to US20200362306A1 (published 2020):

Molecular target: T1, human mesothelin (human, UniProt Q13421 296-580, limits assumed)
T1 construct: also called MSLN
Experiment: method not stated; affinity given in parentheses for the binder

T1 sequence (Q13421 other isoform, or with tags, fused parts or gaps limits assumed): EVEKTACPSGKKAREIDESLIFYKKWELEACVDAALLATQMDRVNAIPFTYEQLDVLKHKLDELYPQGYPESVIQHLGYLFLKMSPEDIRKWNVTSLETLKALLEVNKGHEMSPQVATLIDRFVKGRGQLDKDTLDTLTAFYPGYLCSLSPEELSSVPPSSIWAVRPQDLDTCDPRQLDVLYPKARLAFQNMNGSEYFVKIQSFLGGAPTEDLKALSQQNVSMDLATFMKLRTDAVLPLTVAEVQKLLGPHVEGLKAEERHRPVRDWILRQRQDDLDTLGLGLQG

| Kd [nM] | Binder |
| --- | --- |
| 25 | Single domain anti-MSLN binder 1 (SD1) (VHH, also called anti-MSLN-SD1) VHH: EVQLVESGGGLVQPGGSLRLSCAASGGDWSANFMYWYRQAPGKQRELVARISGRGVVDYVESVKGRFTISRDNSKNTLYLQMNSLRAEDTAVYYCAVASYWGQGTLVTVSS |
| 6 | Single domain anti-MSLN binder 4 (SD4) (VHH, also called anti-MSLN-SD4) VHH: EVQLVESGGGLVQPGGSLRLSCAASGSTSSINTMYWYRQAPGKERELVAFISSGGSTNVRDSVKGRFTISRDNSKNTLYLQMNSLRAEDTAVYYCNTYIPYGGTLHDFWGQGTLVTVSS |
